Data taken from the domain aggregation screens of Martell et al. (2025).

Experiment: soluble fraction after stress (log2 fold change); higher = more stays soluble; pooled small domains, quantitative proteomics
Conditions: stress: 75 degC
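Note: 20 min heating vs room temperature control held 20 min.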

“HMGGGFLVPSLVGKSLEEARSLSELRGFKLEVGDYVISSEYPAGRVTRQNPANGAKGQEGDVIKVEVSS” and “HMGGGRELGLDPETGKKISVRLGKFGPFVQLGESGEEDKPVFANLGKNQSIATLSLEEAIALLARPK” are within 0.2 log units of each other in “soluble fraction (log2)” value: -0.00395 for the first, 0.187 for the second.

Compared with “HMGGGVSSSLAGNVFKVLLPAGSVVEQGQAVIVLEAMKMETEVNAPKSGSVSSVFVNEGDTVEVGDLLFAI”, “HMGGKWKAIIIYHLKNGPKRFGELRRALISSTETVLSNQLKQLEQDGLVSRQVFGTKPPLKTVYSLTDFG” is lower in “soluble fraction (log2)” value: -0.0461 for the first, -3.3 for the second.

Compared with “HMGGKWKLRILLALENSAQDALRYGEIKNIVSGITDMMLSQSLRELTADGLIERRQYQEIPPKVEYRLS”, “HMGGKWKPIILYYININSVARYSELKRFIPSINERMLTRQLRELEEDNLIERKVYPIVPPKVEYRLTEYGK” is higher in “soluble fraction (log2)” value: -2.31 for the first, -0.179 for the second.

“HMGGKWSMPIIYILSKGKMRFKELERSVEGINTRMLVKELKNMEANGIVTREVFPTVPPTVEYALT” and “HMGGKYKGVIIGHLIDKTLRYNELQKLISHATPKMLIQQLKELEADGIIQRKLYPVVPPKTEYSLTERG” are within 0.2 log units of each other in “soluble fraction (log2)” value: -0.968 for the first, -0.973 for the second.

“HMGGLAEGTKITLQNTVNVRASMGEDAEKIGTAYAGEKVTVIMSYAEGWTKVTWNDKTGYIKTSLL” and “HMGGLAHPASGEEMEHLFAHLEGELLKSGFLFPPDKAAGMMRNIRAMLTRADFTDQEVRTLRGMIVALSRG” are within 0.2 log units of each other in “soluble fraction (log2)” value: -1.5 for the first, -1.62 for the second.

Compared with “HMGGNDALEIAKSNPQVIEVLGEPVTKDGMGSYSVNYKNGHKTSEATIPIEGPNGTATLHVKTSGSDDAL”, “HMGGNKILTWKTDAATTRNQVPINERKEGLEISYKNEERNWVAEKYVGTSFSDDKWGVDYNWNQD” is higher in “soluble fraction (log2)” value: 0.237 for the first, 0.951 for the second.

“HMGGPAGPDFTYTGDDLTRIDYDDGSYKVFTYDAGKLSQIDFTSGGTTTRKTFVYSGDTLIRVDQTI” and “HMGGPEPIPAQIREGDTVYVTKFKQLGLVLKISEDTAEVQIGPLRATVAKTELSKVDATATEHR” are within 0.2 log units of each other in “soluble fraction (log2)” value: -0.179 for the first, -0.0822 for the second.

Going from “HMGGQFVKVEVIAQIFGVTVRRVQQLTQEGVVKTTEIPGEGRRYELVPTIKTYIQYLSDKAY” to “HMGGTFLVRILDPALNIRAQPSLTARINGVIRDKSVYTIVATSFEPKTQITWGKLKSGAGWISIGSKYVKK”, the “soluble fraction (log2)” value rises from -4.02 to -3.4.

First: HMGGVTVQNRETHVNSTVNVRSEQTTESERVALAYQGDAITQIESYENGWSKVEYKGLSGYVMTEYL
Second: HMGGYLIGDVAQMVGLSRDALRFYEKKGIIRADKKENGYRYYSEDDIYRLMYILYHRKMNTSLEEIGGLMS
The “soluble fraction (log2)” value of the first is higher: 0.275 for the first, -0.722 for the second.

Compared with “HMGHKKLTIELQDEIIVLPKELEKYNLTVSDDKTSLIYTYKSRGEKTGITDLLRDIKDAGLRLKDLITEQ”, “HMGHTVHAVPEAADRQRLDVFVGNLHPTISRAYIQKLSKEDQILVNGKPEKAGFKLRTGHSVSVPDMSE” is lower in “soluble fraction (log2)” value: 0.284 for the first, 0.00554 for the second.

“HMGIAEAKRVIVRTLHDVLGPEADFLTEKIDVAQTAAELRVHAEKYRDMLVDMGKPKKSAAFWEAFEAALP” and “HMGIAKLLTEQEYKIALLAAERRTNAMIAEEMNLTENTVKTHLKHIFDKVGIAGNAKNKRHLLADMMNSER” are within 0.2 log units of each other in “soluble fraction (log2)” value: -0.588 for the first, -0.552 for the second.

Going from “HMGIDISAFSETALQVLRLQAAGYTAKEISEKLHITPRTVKYHASQNYRKLDAKNLVDAVQIAQALHI” to “HMGIEQVELASRVRDAVDSLPHHLREIILLSYFQKMSYNQIAETLQVPLGTVKSRLHAAVASFAQAWTQSS”, the “soluble fraction (log2)” value rises from -1.79 to -0.712.

First: HMGIFAQTTKWRDIYTVKKKDTIFGIANKYGLSLPELMEANPEMKQEGYMLQKGTTLFIPFASD
Second: HMGIGSTLTDGVRVYASDDEIVVNAPAESDVRIFNAGGAQLYAGRVADVRVAVAKGLYVVTVDGRSTKITV
The “soluble fraction (log2)” value of the first is lower: -1.32 for the first, -1.11 for the second.

“HMGIILDWELFEQFADKLKRKKVDFVIEPYLRFEGRRGEQSTLFIKDPSGNYLEFKAFKNIDMLFEK” and “HMGIPIEAYHESLHRHYIDLWELLDTGKETLIDAEGNEVDKIHLLNAIRFNVNGMLHELLKE” are within 0.2 log units of each other in “soluble fraction (log2)” value: -1.78 for the first, -1.91 for the second.

Going from “HMGIQYVASGHYARMETDAQGVSRLFPPESGAPDESDRLAALSPEVLTRLILPLGDFAPEDVEEMAVD” to “HMGIRAFDPEAFDERLKEFFSMIAPYKKLDTRSLQPHFPHHAKEVAERIRQLAEAGKIKVDGFYISEL”, the “soluble fraction (log2)” value falls from -0.0745 to -0.587.

Going from “HMGIRDIHITVNGESLKLSKKQNYIFVDIFDFYPFDLSILGGSKLITTINGEQAEFTSPLKDGDVVELYWK” to “HMGISNEETFLLEKMSSGRRYSRKELDNLMGFEKTKTIRLLGSLINKGLVVAEGVNRARRYIR”, the “soluble fraction (log2)” value rises from -2.25 to -1.27.

First: HMGISQAQAMQALRKLIEEEDKHTPLSDQTLMERLKAAGIPLARRTIAKYRESLGIPSAAQRK
Second: HMGISVEVPDLKNMSVAEAGSLLKNSGLSYAVVDSDYVKTISPGKILDQNPGRGLRVKKGRIVYLTINSL
The “soluble fraction (log2)” value of the first is higher: -0.266 for the first, -1.69 for the second.

Going from “HMGITDHIYQDLKKRLENGNYPAGTRFPSESTLADEFSVNKMTMNKIVSMLAEQGYLIRGNRGAGTRVAEN” to “HMGITPSIEMILEYFAFKESSETEANKFFNYYSSIGWLVGGKTKMKDWKASARNWIMNQNKFQ”, the “soluble fraction (log2)” value falls from -0.399 to -4.63.

“HMGIVAPGTLKHLHAVGNSYYPDWETKRHELVTAVTKGRTSSSKELYEAEANRLITRIEELLMTAAQSV” and “HMGIVTMPGQGSKMRFDFDATGDLPSSTSWRGMFAYANNTKRAYVSTGTTMGGYNGWRQLIAMDEYGNYQT” are within 0.2 log units of each other in “soluble fraction (log2)” value: -0.113 for the first, 0.0821 for the second.

Going from “HMGKEIEAPDFKNMTLKEAKIAAKEYKIRIKKGDEVVSEEVEKGRIVSQDPDAGTTIKTGSTVTVNISKGL” to “HMGKELSTVVVPDLTGLSVLEARNVLTKVGLQLTPSGAGIAFKQIPTPGTRLTLGATVTVYFVATGY”, the “soluble fraction (log2)” value falls from 0.131 to -1.47.

First: HMGKELTVPDVVGQNYVSAQEKLIAGGFQVEVADSVYDSRYGRGVVVDQNPHKDTRVKPGRLIYVTVNA
Second: HMGKEWPTPDNVEEWKKLVKKARLWPIQADQAQSEETRERNRKKWELFVAYAKRFGYRAGIGETGKPFVNN
The “soluble fraction (log2)” value of the first is higher: -0.157 for the first, -1.15 for the second.

Compared with “HMGKINEIVANNIAILRKKNRLSLEELGKLSGVSKSMLALIEKGDGNPTLGILWKIANGLGVPFDELTRRP”, “HMGKLGENIKRIREGMGLSQRQFGELIGKSDSQIWSYENDRTDILASTLYKIAAVANVDFNNLMAGIIP” is higher in “soluble fraction (log2)” value: -1.35 for the first, -1.07 for the second.

Compared with “HMGKLYRDRYAPLEPDGARAGDRVFIISLEKEGTLERIDLPRKTATVLLGSSIRSTFPLDDLYQPRG”, “HMGKMTSTLGVHIAAYRKEHGETVAQFASRSGVSVSSIRRIESGISDPSADLVWKISRHMGMTMDDLFKKM” is lower in “soluble fraction (log2)” value: -0.25 for the first, -3.74 for the second.

“HMGKNISEEDMLGYFKKIDLDYDAETKEVIAPTFRHDLFRLADLAEEVARFFGYDNIPTTLPSGEAT” and “HMGKPAGLIRELGNHPEDEKPVTLNNGRFGPYVKHGKVMASLTKADSPDDITFDRAIELIAIKAEKMAAKG” are within 0.2 log units of each other in “soluble fraction (log2)” value: 0.185 for the first, 0.173 for the second.

Going from “HMGKPTPASQVATRWLTGNLPESLPVAGPAPSFEALARTVSTDLHPRSVLQELVRLGVAEEANGVVTLRRQ” to “HMGKPVTMELLIPYSQGSLVHRISEAGEVAKTEYQNDGTYMQVTFTPSAKDHALMQEVASYRI”, the “soluble fraction (log2)” value rises from 0.0474 to 0.653.

First: HMGKSDDSLAAEKFIQHVRKNGELSYEQAYRMVHAYFPDFRNFEGMVSGAVKSGYLILIQKSTGLFLRAKE
Second: HMGKTEMPFSTFLTEVDKGNIVSVDIRGSEISGNFRDGKGFKTYSPNYPNLVEKLSAKGVAITAGPR
The “soluble fraction (log2)” value of the first is lower: -3.68 for the first, 0.389 for the second.

Compared with “HMGKTKFTEMSALELKAYAELNNNSMHWVYRMLYIGGGDVGFRKGMKELGYSGKFIWMTLERLKKS”, “HMGKTTQEIEERSSTSTLTLTQTPKEIISVQGKKSDQSFFTNIQYTQNGKVIVPKQTGIYDTIKVVFTVSL” is lower in “soluble fraction (log2)” value: -1.24 for the first, -1.48 for the second.

“HMGKVLIYKPNMSVSDVAIRLGISNAEIIKRLMGLGVMTSINQTIDRDTIELVAMDLGFSIEN” and “HMGLAGVQSDVKVSFDGDLLVVTSDIARSFNLFAVDGRLIRSVNLIAGRNEIRGLERGFYLAEKQKIFV” are within 0.2 log units of each other in “soluble fraction (log2)” value: -1.81 for the first, -1.93 for the second.

Compared with “HMGLAWTVEGRTVLLGRTADRIELYNVGGGLVALARESDRISAPGVGLYVVRVVSDGQSVSQKIWIT”, “HMGLDMSLEREQHRALREASQWYARLADEQVDSDAERAWRHWVAADEANQRAWQYIEAVSQRFDG” is higher in “soluble fraction (log2)” value: -2.39 for the first, -0.605 for the second.

Going from “HMGLDNEGFERLRQKITRLLSEEALPVKELVDSFASKMRQEVLETLAFLQQEGVIEEKNGKLFLK” to “HMGLIDNLTRIMEKKNISAYQLEKAGIVKQTTFTSWKKGTQPALDKIIKIMQYIEVTPNELFGY”, the “soluble fraction (log2)” value falls from -0.189 to -2.95.

Compared with “HMGLKWVYYTNIEPDGNKINNQKLYDILKQKFVYPVIISRDELDSMELKDLTYDSYIDVEGRYFKPYNLD”, “HMGLNPSILVKLGNANIKTIDNLADLASDELKEILEDISITSKEADEIIMRARSSWFEEDDKKEDNI” is higher in “soluble fraction (log2)” value: -2.04 for the first, 0.0765 for the second.

“HMGLPAWVPQNYIDRVTAIYDYSADKDDELTFNEGSTIFVLKKNDDGWWEGVMDGVTGLFPGNYVEAT” and “HMGLQLTPVRRRVLEILLHEHRALGAYDILDKLRSEGLGSQPPVAYRALDFLVTHGFAHKIERLNAF” are within 0.2 log units of each other in “soluble fraction (log2)” value: -0.971 for the first, -0.829 for the second.

Compared with “HMGLQRLTVSPEDAGVRIDKYLAEQLPDITRSYLQKLLKDGSVQMNGKPVKASTKTAVGAVIALTIPEP”, “HMGLSAEAARMAIQDAGLSKEDFAQKLGIKKVERVVEWEAGTSKPTFVQAQKIANATNIPFGYLFLVNPPK” is higher in “soluble fraction (log2)” value: -0.26 for the first, 0.285 for the second.

First: HMGLTRRAQLEVADANLKRLYPGMHQSWVTAIAEYLHSSYWRYINSLEPEYAASIQRVYEQHIDAM
Second: HMGLTYEQILTDVQRFVTQNHADTLSNEGNPEEARKLLKDYILQYVQNRSYHVDGQTTEELVDSLYED
The “soluble fraction (log2)” value of the first is higher: -0.0229 for the first, -0.231 for the second.

“HMGLVDSLEPLLRRVYEALPQRRSMTTERLAVAAGLDEESVKVALARLQLSAFVGVDERGWHRSL” and “HMGLVLIDSYNDIGSAKLITNKIRNLGLIFEENENKINVFAGPFEKNDINLKIDFLIRNGYTNAQLY” are within 0.2 log units of each other in “soluble fraction (log2)” value: -2.98 for the first, -3.08 for the second.

Compared with “HMGLVQQSAQKSDDAAKLMAANNLNAAQSKYQLPDEAEKDFFTFAFERGYAVEDFVDAGLVDKIMADFSA”, “HMGLVVIGTEAGYPAEKAGILAGDRIRKLNGAAVPDYDTFLTALAARKGEPSAIELERDGKTLEVTVSPL” is higher in “soluble fraction (log2)” value: -0.447 for the first, 0.105 for the second.

Going from “HMGLWWTEAERELVKTTIEQLYKDTNIAEPVDSKNLRASIPALKAMRTGLSAENQARVDTLLGALQV” to “HMGMAGILDSARMASFIQEKLGYGGGQIRASVMGGHGDDMVPLPRYSTVAGVPLSDVLTQNEIDEMFAQ”, the “soluble fraction (log2)” value rises from -0.462 to -0.0337.

Compared with “HMGMDALIGRRVFVSEEILPGDTGGRMAVDGDSWRAISVGTASNIPAGTEVRIRGHQSLVLEVEP”, “HMGMEENLLKERKQILMDIMKSKEYQPMKVKELAMVLNVPKEDREELRYVLNELMNEGKIVESKKGKFSIA” is higher in “soluble fraction (log2)” value: -0.169 for the first, 0.129 for the second.
